Our source for the Kd values is publication PMC5916551.

The experiment concerns the target Transforming growth factor β1 (TGFβ1) (human) (UniProt P01137). Kind of experiment: SPR.
Sequence of UniProt P01137 (P01137 279-390): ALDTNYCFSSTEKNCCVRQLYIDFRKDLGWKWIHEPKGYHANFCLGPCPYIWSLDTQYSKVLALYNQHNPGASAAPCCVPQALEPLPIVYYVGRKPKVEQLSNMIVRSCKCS

As to Metelimumab (CAT192 IgG4) (antibody), the Kd was 0.139 µM.

As usually defined, the Kd is the constant that tells how readily two partners part at equilibrium. A higher Kd goes with a looser complex.
